# Experimental data reported in the DeepSol protein solubility set.
# Experiment: soluble on expression in E. coli; label from the status in PepcDB or PDB records
row,Sequence,soluble on expression in E. coli
1,MRSLLLLALVSASAYASFDKIKDSIQNPLARGFGDDIAWVKWEDAIETALDTDKPIFLLIHKSWCHACKALKKTFQQSNAKKAFKKLSEHFVMVNTEDDDEPFEEEYRPDGKYIPRLLFLDKNGDLLQEFKNKKAEYKNYAYYYSSPADILNSMKDVLKHFGVDIPEAKRGDKLKPKKPEGKKKEL,not soluble
2,MGHHHHHHSHGGCRELRSTKYISDGQCTSISPLKELVCAGECLLLPVLPNWIGGGYGTKYWSRRSSQEWRCVNDKTRTQRIQLQCQDGSTRTYKITVVTACKCKRYTRQHNESSHNFESMSPAKPVQHHRERKRASKSSKHSMS,not soluble
3,MGSDKIHHHHHHMFDTLASLGRDLQARETLNACLDRVFRDVCAQGFQSLVYDYAPVPLSMEGALITPSVFLQRNAPDDMHNVWCEHGYYQNDPVQQRATRRTTPFVWSYRTEGRTEGRTEGVEYVGDQHRQVTRYLCDSDMGTGVTVPLHLPGGAFATFSAAVNATQAEAPRLAEAQLPPFLLLAHAFQARAQELLDPQERRCHHIALTRRERECLQYSAKGMTAKSIAATLNRSTATVNLHLNSAARKLGARNRVEAVVRGMHYRLLEL,not soluble
4,MPKRGLDVSSCEIFRFYKLITTKSLIEPVSMIVPRRSESYQEDIYPPTAAAQPSLTAHEWLSGMNRGKGGWEQAARLGNWSPGGPK,not soluble
5,MSLHTPLEQQEIRYRKGDIIELTITDHAEKDKCFGKTTEGMGVMVSGILAPGDRVSAQIYKVKSRYLEARAIEVLEASPDRVEPVCPVFGSCGGCKWMHVSYEAQLRYKHKKVTDSLEHIGGFESPDVRPVLAAPDALHYRNKVEFSCSNMRYLLQSEIDSDQLAKPKTFALGFHAPGNFEKVLDLDTCYLAKECMNRVLNVLRDFAIERGLEPYAAKAHEGYLRNLMLRYSERHEQLMVNIVTSWYDKALMQALKERLEAAMPEQQMTLLNNVTTRKNTVATGEQEYVISGDGYVTERLGDLDFRISANSFFQTNTRQAETLYDQIIAVGGITPEDTVYDLYCGTGTITLYLARHCKQAIGIEVVESAVKDAEMNAELNGLSNTVFFQADLKNFHAMQEALEPYAKPRIIVTDPPRAGMHPKALDTMLKLQPERIVYVSCNPDNLARDGKEIAARGYRMTSAQPVDMFPQTNHIETVACFERAEGHHHHHH,soluble
6,MGHHHHHHSHMQWSKEEEAAARKKVKENSAVRVLLEEQVKYEREASKYWDTFYKIHKNKFFKDRNWLLREFPEILPVDQKPEEKARESSWDHVKTSATNRFSRMHCPTVPDEKNHYEKSSGSSEGQSKTESDFSNLDSEKHKKGPMETGLFPGSNATFRILEVGCGAGNSVFPILNTLENSPESFLYCCDFASGAVELVKSHSSYRATQCFAFVHDVCDDGLPYPFPDGILDVILLVFVLSSIHPDRTLFI,not soluble
7,MGDDLDSLTDQLSSGFQVDPLALGEHPRYSQYKNLTKAAEQQAKRREETLERQKNGRFDTFMKLRNLAFDDVTSDEDDEQKIETTTAEKHTGKFKKYADKMMLSEWLVDIPESLSSDWTMVMAPVGKRTLVVASRGFTVAYNKGGREVSRFQSRLPGGNTRAKNQAWTILDCIYSNQTYYVLDLLSWNAHEYVESPYDFRQFMLKSKLEEAPELAKSTPGFRNIFSPIPSCPCSQDQMAELMKNEISFRLDGLLFYHNSVVYQPGQSPLVGWLKPWMLPEILNVPVPEKYKAESNGQSSSQFIESFNQKHKHQSKIDRSMEH,not soluble
8,RGSHHHHHHGSFTPSGTTGTTKLTVTEECQVRVGDLTVAKTRGQLTDAAPIGPVTVQALGCNARQVALKADTDNFEQGKFFLISDNNRDKLYVNIRPMDNSAWTTDNGVFYKNDVGSWGGTIGIYVDGQQTNTPPGNYTLTLTGGYWAK,soluble
9,MAHHHHHHSLKNTLGRQFSRATETYEKWAVPQRKSAKILVEFVKPSGLVLDLGCGTGFISEFVNDCEVVGLDISEGMAKAYREKFRKVVIGNAENLPFKDRSFDFVLSNFSLHWSDWRKSIREALRVCKNFVGVAIPVYGSVSFSEFPFPKAEEILEEFKPQEFKIINLEIPFRGMELIKFFHYTGTANFTGKKNFKTKRELIKLSKDLEKEYFKVLFLKLKSRAFEG,soluble
10,MRYIAGIDIGNSSTEVALATLDEAGALTITHSALAETTGIKGTLRNVFGIQEALALVARGAGIAVSDISLIRINEATPVIGDVAMETITETIITESTMIGHNPKTPGGAGLGTGITITPQELLTRPADAPYILVVSSAFDFADIASVINASLRAGYQITGVILQRDDGVLVSNRLEKPLPIVDEVLYIDRIPLGMLAAIEVAVPGKVIETLSNPYGIATVFNLSPEETKNIVPMARALIGNRSAVVVKTPSGDVKARAIPAGNLELLAQGRSVRVDVAAGAEAIMKAVDGCGRLDNVTGESGTNIGGMLEHVRQTMAELTNKPSSEIFIQDLLAVDTSVPVSVTGGLAGEFSLEQAVGIASMVKSDRLQMAMIAREIEQKLNIDVQIGGAEAEAAILGALTTPGTTRPLAILDLGAGSTDASIINPKGDIIATHLAGAGDMVTMIIARELGLEDRYLAEEIKKYPLAKVESLFHLRHEDGSVQFFSTPLPPAVFARVCVVKADELVPLPGDLALEKVRAIRRSAKERVFVTNALRALRQVSPTGNIRDIPFVVLVGGSSLDFEVPQLVTDALAHYRLVAGRGNIRGSEGPRNAVATGLILSWHKEFAHER,soluble
11,MGHHHHHHSHMAAPEAEVLSSAAVPDLEWYEKSEETHASQIELLETSSTQEPLNASEAFCPRDCMVPVVFPGPVSQEGCCQFTCELLKHIMYQRQQLPLPYEQLKHFYRKPSPQAEEMLKKKPRATTEVSSRKCQQALAELESVLSHLEDFFARTLVPRVLILLGGNALSPKEFYELDLSLLAPYSVDQSLSTAACLRRLFRAIFMADAFSELQAPPLMGTVVMAQGHRNCGEDWFRPKLNYRVPSRGHKLTVTLSCGRPSIRTTAWEDYIWFQAPVTFKGFRE,not soluble
12,VDVRAIMTPPAHQDGGKHDVDARGPCGLTPLMIAAVRGGGLDTGEDIENNEDSTAQVISDLLAQGAELNATMDKTGETSLHLAARFARADAAKRLLDAGADANCQDNTGRTPLHAAVAADAMGVFQILLRNRATNLNARMHDGTTPLILAARLAIEGMVEDLITADADINAADNSGKTALHWAAAVNNTEAVNILLMHHANRDAQDDKDETPLFLAAREGSYEACKALLDNFANREITDHMDRLPRDVASERLHHDIVRLLDEHVPRSPQMLSMTPQAMIGSPPPGQQQPQLITQPTVISAGNGGNNGNGNASGKQSNQT,soluble
13,MGSDKIHHHHHHMSKAKELTPEQFRKMQLTELDMLVEFDKVCRKHNINYVLFGGSLLGAVRHKGYIPWDDDADIGMLREDYDTFKKYASEMNSEICYFQDHDTDPEYRWGYGKLRRTNTIYVRVGQEHLKNKTGIFVDVFPMDDVPLSTLGQIVQDRKVYCLRKILWSEVARVQSTGFMKLWYSVLAKIPVEWVFSRLNKYAVKSKNITPNRVRCLSFPATGTLYKKNSLKTRYSMPKSWFTNRAEYLFEGRLLYSSKEYDEVLKYIYGKYMELPPKDKREQHSPFSKIKFQDEEMIV,not soluble
14,MSLDLPYLSPTPFIKPVPSFKKYSMGFYPIVDSSHWLEMLLPLGIKCIQLRIKEASQERLEEEIKRSVHLANQYNAALFINDHWELAIHYGAAGVHLGQEDLEKADVDRINRSGLFLGISTHCYYEVARAHALNPSYVACGPIYETTSKIMPFQAQGIARLERWRKTLRYPLVAIGGITLKNLSDVLKTKIDGVSVISAITKASAPLVAAKQFLTQMNESHNEGHHHHHH,not soluble
15,MGHHHHHHSHLEGPDCCFKSTVAAKLSKELKYPIIKGSSFELAKSGNEKLFEHFNKLADEDNVIIDRFVYSNLVYAKKFKDYSILTERQLRFIEDKIKAKAKVVYLHADPSVIKKRLRVRGDEYIEGKDIDSILELYREVMSNAGLHTYSWDTGQWSSDEIAKDI,not soluble
16,MGSDKIHHHHHHMQFGNHPYYANELMLSLDEASGMVGEDARVAEFIRPLYGSRESISGTPRTCLWITDENLALAQEIPAVWARVEKVRKDRKTKTKDVQAKKLVETPWRFRDQYEAESSLLVVPIVSSENRPYLPVVLLSKEAIVHNKAFALYDAPLWNFALIVSKMHLVWVAAVCVRLEMRYSYSNTLGWNTFPVPTLTEQNKADLTRCAEDILLARESHYPATIADLYGPDNMPDDLLRAHERNDEVLERIYIGRRFRNDTERLEKLFDLYTKMTAGQGKPKKKAKK,not soluble
